Measurements taken from PMC8368996, “Interactions between AMOT PPxY motifs and NEDD4L WW domains function in HIV-1 release” (The Journal of Biological Chemistry, 2021).
Like-named read-outs stand apart in the source and are kept apart here. One block for each substance: values may come before it.

Experiments:
AMOT(1-300)-ALEXA488 = AMOT(1-300)-ALEXA488 (UniProt Q4VCS5); assay: fluorescence polarisation
[1] = target: AMOT PPxY1 A112K mutant peptide (UniProt Q4VCS5); assay: fluorescence polarisation; 1 nM Oregon Green-labelled PPxY peptide, 2-fold dilutions of WW domain; 20 mM Tris pH 7.5, 150 mM NaCl, 0.5 mM TCEP; 26 °C (legend: 25 °C)
[2] = target: AMOT PPxY1 peptide (residues 100-114), Oregon Green 488-labelled (UniProt Q4VCS5); assay: as above
[3] = target: AMOT PPxY2 P239L mutant peptide (UniProt Q4VCS5); assay: as above
[4] = target: AMOT PPxY1 E104K/E105K mutant peptide (UniProt Q4VCS5); assay: as above
[5] = target: AMOT PPxY1 peptide (residues 100-114), Oregon Green 488-labelled (UniProt Q4VCS5); assay: as above; remark: listed apart in the source
[6] = target: AMOT PPxY3 (Homo sapiens) (UniProt Q4VCS5); conditions: cited from earlier work

AMOT(1-300)-ALEXA488, sequence (Q4VCS5 1-300): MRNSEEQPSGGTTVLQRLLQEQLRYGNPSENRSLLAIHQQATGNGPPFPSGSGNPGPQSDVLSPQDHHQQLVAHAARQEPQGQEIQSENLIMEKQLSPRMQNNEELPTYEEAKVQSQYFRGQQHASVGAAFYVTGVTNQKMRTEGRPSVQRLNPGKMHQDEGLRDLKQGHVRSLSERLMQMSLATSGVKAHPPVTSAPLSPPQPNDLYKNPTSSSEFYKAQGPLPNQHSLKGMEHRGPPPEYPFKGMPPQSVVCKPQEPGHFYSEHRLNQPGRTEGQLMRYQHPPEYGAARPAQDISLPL
KIBRA WW1-WW2, sequence (Q8IX03 6-86): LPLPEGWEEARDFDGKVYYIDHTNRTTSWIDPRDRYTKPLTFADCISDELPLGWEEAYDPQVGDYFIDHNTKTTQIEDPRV

Kd (AMOT(1-300)-ALEXA488): 2.7 µM
Substance: full-length recombinant NEDD4L (isoform 2) (enzyme)

Kd [1]: 40 µM
Kd [2]: 4.5 µM
fold reduction of binding against wt PPxY2 [3]: 2.8 fold
Kd [4]: 31 µM
Kd [5]: 4.8 µM
Substance: NEDD4L WW3 domain (domain or fragment)

Substance: KIBRA WW1-WW2 (from UniProt Q8IX03)
Kd [6]: 0.096 µM
